Consider seven molecules from patent US20240182549A1 (published 2024).

Assay [1] concerns the target T1, SARS-CoV-2 S protein ectodomain trimer (residues 1-1211, foldon trimerization motif, 6xHis tag, AviT (SARS-CoV-2; bacteriophage T4, UniProt P0DTC2 14-1211; P10104 458-484).
In assay [2] the target is T1, SARS-CoV-2 S protein ectodomain trimer …. Kind of assay: BLI on immobilized S protein ECD.
For assay [3] the target is unchanged. Kind of assay: BLI on immobilized S protein.
Assay [4] has the same target. Kind of assay: ELISA on biotinylated S protein trimer captured with immobilized streptavidin.

B1: peptide-IgG 33^LR1 (peptide p102 fused to the N-terminus of the light chain of IgG 15033) (antibody)
heavy: not shown
light: ECWEWSYQLQEWSPCPGGGGSGGGGSGGGGSGGGGSDIQMTQSPSSLSASVGDRVTITCRASQSVSSAVAWYQQKPGKAPKLLIYSASDLYSGVPSRFSGSRSGTDFTLTISSLQPEDFATYYCQQSYRYPITFGQGTKVEIKRTVAAPSVFIFPPSDEQLKSGTASVVCLLNNFYPREAKVQWKVDNALQSGNSQESVTEQDSKDSTYSLSSTLTLSKADYEKHKVYACEVTHQGLSSPVTKSFNRGEC
Turning to B1, in assay [1], the Kd came to 6.1 pM, the koff is 2.2e-06 s⁻¹ and the association rate constant (kon) came to 350000 M⁻¹ s⁻¹.

B2: peptide-IgG 33^LN1 (peptide p16 fused to the N-terminus of the light chain of IgG 15033) (antibody)
heavy: not shown
light: DFDFAENWMEQLKVMLGGGGSGGGGSGGGGSGGGGSDIQMTQSPSSLSASVGDRVTITCRASQSVSSAVAWYQQKPGKAPKLLIYSASDLYSGVPSRFSGSRSGTDFTLTISSLQPEDFATYYCQQSYRYPITFGQGTKVEIKRTVAAPSVFIFPPSDEQLKSGTASVVCLLNNFYPREAKVQWKVDNALQSGNSQESVTEQDSKDSTYSLSSTLTLSKADYEKHKVYACEVTHQGLSSPVTKSFNRGEC
Regarding B2, the “fold improvement of apparent KD relative to IgG 15033” value in assay [2] is greater than 100 fold. In assay [1], this molecule registered a Kd of less than 1 pM, a koff of less than 1e-07 s⁻¹ and a kon of 1.1e+06 M⁻¹ s⁻¹.

B3: 15031 Fab-IgG (tetravalent) (antibody)
heavy: not shown
light: DIQMTQSPSSLSASVGDRVTITCRASQSVSSAVAWYQQKPGKAPKLLIYSASDLYSGVPSRFSGSRSGTDFTLTISSLQPEDFATYYCQQGSYLFTFGQGTKVEIKRTVAAPSVFIFPPSDEQLKSGTASVVCLLNNFYPREAKVQWKVDNALQSGNSQESVTEQDSKDSTYSLSSTLTLSKADYEKHKVYACEVTHQGLSSPVTKSFNRGEC
B3: the binding result in assay [3] is listed as “binds”.

B4: 15031 IgG-Fab (tetravalent) (antibody)
heavy: not shown
light: DIQMTQSPSSLSASVGDRVTITCRASQSVSSAVAWYQQKPGKAPKLLIYSASDLYSGVPSRFSGSRSGTDFTLTISSLQPEDFATYYCQQGSYLFTFGQGTKVEIKRTVAAPSVFIFPPSDEQLKSGTASVVCLLNNFYPREAKVQWKVDNALQSGNSQESVTEQDSKDSTYSLSSTLTLSKADYEKHKVYACEVTHQGLSSPVTKSFNRGEC
Regarding B4, in assay [3], the binding result is “binds”.

B5: IgG 15031 (antibody, V domains shown)
VH: EVQLVESGGGLVQPGGSLRLSCAASGFDLTGSYMHWVRQAPGKGLEWVAGISASGGATAYADSVKGRFTISADTSKNTAYLQMNSLRAEDTAVYYCARSRSSSYSSSGWRYYSGAFDYWGQGTLVTVSS
VL: DIQMTQSPSSLSASVGDRVTITCRASQSVSSAVAWYQQKPGKAPKLLIYSASDLYSGVPSRFSGSRSGTDFTLTISSLQPEDFATYYCQQGSYLFTFGQGTKVEIKR
In the case of B5, the binding result in assay [4] is “binds”.

B6: peptide-IgG 33^HN1 (peptide p16 fused to the N-terminus of the heavy chain of IgG 15033) (antibody)
heavy: not shown
light: DIQMTQSPSSLSASVGDRVTITCRASQSVSSAVAWYQQKPGKAPKLLIYSASDLYSGVPSRFSGSRSGTDFTLTISSLQPEDFATYYCQQSYRYPITFGQGTKVEIKRTVAAPSVFIFPPSDEQLKSGTASVVCLLNNFYPREAKVQWKVDNALQSGNSQESVTEQDSKDSTYSLSSTLTLSKADYEKHKVYACEVTHQGLSSPVTKSFNRGEC
B6: in assay [1], the Kd was 24 pM, the koff is 3.8e-05 s⁻¹ and the kon was determined as 1.6e+06 M⁻¹ s⁻¹.

B7: peptide-IgG 33^HR1 (peptide p102 fused to the N-terminus of the heavy chain of IgG 15033) (antibody)
heavy: not shown
light: DIQMTQSPSSLSASVGDRVTITCRASQSVSSAVAWYQQKPGKAPKLLIYSASDLYSGVPSRFSGSRSGTDFTLTISSLQPEDFATYYCQQSYRYPITFGQGTKVEIKRTVAAPSVFIFPPSDEQLKSGTASVVCLLNNFYPREAKVQWKVDNALQSGNSQESVTEQDSKDSTYSLSSTLTLSKADYEKHKVYACEVTHQGLSSPVTKSFNRGEC
On to B7, for which the “fold improvement of apparent KD relative to IgG 15033” value in assay [2] was greater than 100 fold. In assay [1], this molecule registered a Kd of less than 1 pM, a koff of less than 1e-07 s⁻¹ and a kon of 1.2e+06 M⁻¹ s⁻¹.
